Biological target: T1, Full-length human CDK1 from a 3C-protease cleavable GST fusion (GPLGS left at the N terminus), … (human, UniProt P06493 1-297)
T1 construct: short cloning artefact left at the N terminus after 3C cleavage of the GST fusion; CDK1, human, full length; also called GST-CDK1 (before cleavage); unphosphorylated CDK1; source: insect cells (Sf9, baculovirus pVL1393GST-CDK1), purified (glutathione-sepharose 4B, GST-3C cleavage, SEC); for ITC treated with λ-phosphatase and purified again by SEC; not shown: GST, N-terminal, cleaved
T1 sequence (P06493 other isoform, or with tags, fused parts or gaps): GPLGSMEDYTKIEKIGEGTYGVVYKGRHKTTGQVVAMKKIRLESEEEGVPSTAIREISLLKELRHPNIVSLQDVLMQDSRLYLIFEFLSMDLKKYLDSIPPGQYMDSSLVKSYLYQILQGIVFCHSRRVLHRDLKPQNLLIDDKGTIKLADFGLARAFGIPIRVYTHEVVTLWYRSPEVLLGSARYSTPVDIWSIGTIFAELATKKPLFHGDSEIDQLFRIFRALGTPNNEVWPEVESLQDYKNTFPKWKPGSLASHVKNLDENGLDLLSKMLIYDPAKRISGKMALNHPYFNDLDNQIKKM
Test: ITC; higher salt, higher pH: 50 mM HEPES pH 8.0, 500 mM NaCl, 0.01% MTG, 30 °C; cyclin in the cell, unphosphorylated CDK from the syringe; one-set-of-sites model
Details: both partners purified

Kd: 28 nM
B1: Human cyclin B1, residues 165–433 carrying the C167S/C238S/C350S mutations (domain or fragment)
chain: GSHMNLSSEYVKDIYAYLRQLEEEQAVRPKYLLGREVTGNMRAILIDWLVQVQMKFRLLQETMYMTVSIIDRFMQNNSVPKKMLQLVGVTAMFIASKYEEMYPPEIGDFAFVTDNTYTKHQIRQMEMKILRALNFGLGRPLPLHFLRRASKIGEVDVEQHTLAKYLMELTMLDYDMVHFPPSQIAAGAFSLALKILDNGEWTPTLQHYLSYTEESLLPVMQHLAKNVVMVNQGLTKHMTVKNKYATSKHAKISTLPQLNSALVQDLAKAVAKV
notes: artefact left N-terminal to N165 after thrombin cleavage of the hexa-histidine tag; cyclin B1, human, residues 165–433 (begins at N165); not shown: His6, N-terminal, cleaved

Source: PMC4413027 (Nature Communications, 2015)
